This is an account of results in patent US20250101091A1 (Eli Lilly, published 2025).

Experiment [1] addresses T1, Cleaved rat epiregulin (rat, UniProt Q9Z0L5 56-101). Kind of experiment: cell-based or functional assay.
The target in experiment [2] is T1, Cleaved rat epiregulin. Kind of experiment: MSD-SET solution equilibrium titration, 37 C, pH 6.0.
Description: (§1) An MSD SI6000 instrument (Meso Scale Discovery, Rockville, MD) is used for reading MSD plates. MSD assay plates are prepared as follows. A multi-array 96-well plate (Meso Scale Discovery, P/N L15XA-3) is coated overnight at 2-8° C. with 30 μl of a 1 μg/ml solution of a monomeric Fc-human epiregulin fusion in PBS. Plates are washed 3× in PBST following coating, then blocked for 1 hour at room temperature with shaking in 3% Blocker A (diluted in PBS from 5% Blocker A, Meso Scale Discovery, P/N R93AA-1).
(§2) SET samples are prepared in 1% Blocker A at pH 6.0 and at pH 7.4. Antibody is diluted to either 20 and 200 μM (pH 7.4) or 200 μM and 2 nM (pH 6.0). Epiregulin is serially diluted for a total of 12 dilutions centered around 2× the antibody concentration. This is accomplished by using starting concentrations of 10 and 100 nM (pH 7.4) or 100 nM and 1000 nM (pH 6.0) which are then 10× diluted once, 2× serially diluted 9 times, and then 10× diluted for the final dilution. Epiregulin titrations and fixed concentration antibody solutions are combined 1:1 to prepare the SET solutions. SET solutions are incubated at 37° C. for approximately 96 hours to allow binding to reach equilibrium. […] The plate is then washed 3× with PBST, then 100 μl of 1× Read Buffer T (diluted in water from 4× Read Buffer T, Meso Scale Discovery, P/N R93AA-1) is added before reading the plate. […]
The target in experiment [3] is T1, Cleaved rat epiregulin. Nature of the experiment: MSD-SET solution equilibrium titration, 37 C, pH 7.4.
Description: as §1, §2
For the next experiment, the target named is T2, EGF (human, UniProt P01133 971-1023).
T2 construct: Bought reagent, biotinylated in the ELISA; also called epidermal growth factor
Kind of experiment: ELISA: biotinylated ligand (20 nM) captured on neutravidin plate, antibody titrated 1:3, anti-human kappa-AP detection, OD405 [panel A]. For orientation: In an ELISA, binding on a coated surface is turned into a signal by an enzyme label.

The next experiment has as its target T3, HB-EGF (human, UniProt Q99075 63-148).
T3 construct: Bought reagent, biotinylated in the ELISA
The description is as above.

The next experiment has as its target T4, TGFα (human, UniProt P01135 40-89).
T4 construct: Bought reagent, biotinylated in the ELISA; also called TGFA; transforming growth factor alpha
Described as above.

In the next experiment the target is T5, human Epigen (human, UniProt Q6UW88 53-104, limits assumed).
T5 construct: Bought reagent, biotinylated in the ELISA; also called EPGN
The experiment is described as above.

For another experiment, the target named is T6, Amphiregulin (human, UniProt P15514 101-198).
T6 construct: Bought reagent, biotinylated in the ELISA; also called AREG
T6 sequence (looked up): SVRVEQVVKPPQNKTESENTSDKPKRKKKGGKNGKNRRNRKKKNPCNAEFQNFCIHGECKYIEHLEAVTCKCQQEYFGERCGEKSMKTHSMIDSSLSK
The experiment is described as above.

For the next experiment, the target named is T7, Betacellulin (human, UniProt P35070 32-111).
T7 construct: Bought reagent, biotinylated in the ELISA; also called BTC
T7 sequence (looked up): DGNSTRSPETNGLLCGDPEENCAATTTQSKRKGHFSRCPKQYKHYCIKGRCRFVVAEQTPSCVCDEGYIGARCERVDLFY
Described as above.

Description for Amphiregulin: (§3) ELISA assays can be run as follows. […] After blocking, plates are washed 3 times with PBS plus 0.05% Tween20 to remove residual blocking buffer. […] Ligands are transferred to blocked assay plate and incubated at room temperature for 1 hour. The assay plate is washed 3 times with PBS plus 0.05% Tween20. […] The assay plate is washed 3 times with PBS plus 0.05% Tween20. […] The assay plate is washed 3 times with PBS plus 0.05% Tween20.
Description for Betacellulin: as §3
Description for HB-EGF: as §3
Description for TGFα: as §3
Description for human Epigen: as §3

B1: Antibody 1 (antibody, human IgG4 S228P, kappa, F234A L235A, V domains shown)
VH: QVQLQESGPGLVKPSETLSLTCTVSGGSISSYYWSWIRQPAGKGLEWIGRIYPSGNTNYNPSLKSRVTISVDTSKNQFSLKLSSVTAADTAVYYCARGGLVMDVWGQGTLVTVSS
VL: EIVLTQSPGTLSLSPGERATLSCRASQSVEFSYLAWYQQKPGQAPRLLIYGASSRATGIPDRFSGSGSGTDFTLTISRLEPEDFAVYYCHQYGTNPFTFGQGTKVEIKR
notes: Fully human IgG4 (S228P, F234A/L235A by EU index, C-terminal Lys deleted), kappa light chain
As for B1, the “IC50, neutralization of epiregulin induced luciferase reporter activity in C166-AP1-Luciferase cells” value with Cleaved rat epiregulin [1] was found to be 2.5 nM. Also, the Kd with Cleaved rat epiregulin [2] worked out at 0.286 nM; with Cleaved rat epiregulin [3], 0.0302 nM. Besides, the binding result with EGF, with HB-EGF, in the experiment with TGFα, with human Epigen, with Amphiregulin and with Betacellulin was “no binding (tested: 10 ug/mL)” each time.

Broadly, the Kd is the constant that tells how readily two partners part at equilibrium. Read a high Kd as weaker binding.
